Laboratory results taken from patent US6124262A, “Compositions and methods for reducing adhesiveness of defective red blood cells” (The Regents of the University of California, dated 2000).
Where no end group is shown, it is not given here. [ ]: non-standard residue; d: D form.

What was measured:
[1] = tested on: P. falciparum-infected erythrocytes (rosetting); assay type: cell-based; conditions: FIG. 3B; read-out: IC50, competitive inhibition of rosetting
Description: (§1) The Gambian FCR-3 strain of P. falciparum was cultured according to the literature method [Trager, W. & J. Jensen (1976) Science 193:673-675]. Cultures were synchronized at the ring stage by sorbitol lysis of mature forms [Lambros, C. & J. P. Vanderberg (1980) J. Parasitology 65:418-20]. Knobless parasite cultures were produced from a knobby FCR-3 line and maintained as described previously [Crandall, I. E. et al. (1994) Cell Adhesion & Communication 2(6):503-510].
(§2) Cytoadherence assays were carried out as described previously [Udeinya et al. (1981), supra; Crandall et al. (1991), supra] except that BTS buffer (50 mM Bis Tris, 130 mM NaCl, pH 6.6) was substituted for BTC buffer (i.e. the Ca^+ was omitted from the cytoadherence assay buffer). Rosetting was measured as described previously [Crandall et al. (1994), supra].
(§3) In order to determine if the action of the antibody was due to the non-competitive removal of the sequence FSFCETNGLEYI [SEQ ID NO:44], the antibody's epitope, or whether it was the result of steric hindrance or induced conformational change of the protein associated with the antibody's binding, the effect of adding increased amounts of the peptide FSFCETNGLE [SEQ ID NO:26] to rosetting and cytoadherence assays was determined. […] FIG. 3A illustrates the results of adding the indicated peptides to the incubation medium of a cytoadherence assay. […]

[2] = tested on: P. falciparum-infected erythrocytes; assay type: cell-based; conditions: FIG. 3A; read-out: IC50, competitive inhibition of cytoadherence
Description: as §1, §2, §3

[3] = molecular target: human band 3 protein (human, UniProt P02730); test: cell-based or functional assay
[4] = molecular target: CD36 (Homo sapiens (Human), UniProt P16671); test: cell-based or functional assay

## FSFCETNGLE [Peptide 2f, FSFCETNGLE]
[1]
  IC50: 3 µM
[2]
  IC50: 4 µM

## FSFCETNGLE [peptide 2f, FSFCETNGLE]
[3]
  50% inhibition of sickle cell binding to HUVEC: 4 µg/mL
  IC50 of inhibition of cytoadherence of P. falciparum-infected erythrocytes: 4 µM
  IC50 of inhibition of rosetting of P. falciparum-infected erythrocytes: 3 µM

## GHPLQKTY [peptide 3d, GHPLQKTY]
[4]
  50% inhibition of sickle cell binding to HUVEC: 4 µg/mL

## G[dH][dP][dL][dQ][dK][dT][dY] [D-isomer of peptide 3d]
[4]
  50% inhibition of sickle cell binding to HUVEC: 4 µg/mL
